Data as given in patent US20150110788A1 (published 2015).

B1: HuGAL-F2 (antibody, V domains shown)
VH: EVQLVQSGAEVKKPGSSVKVSCKASGYTFTNYVINWVRQAPGQGLEWIGYNDPYNDVSKYNEKFKGRATITSDKSTSTAYMELSSLRSEDTAVYYCAKEGGGKYVYAMDSWGQGTTVTVSS
VL: DIQMTQSPSSLSASVGDRVTITCKASQSVSSDVGWYQQKPGKAPKLLIYSGSNRYSGVPSRFSGSGSGTDFTLTISSLQPEDFATYYCQQDYYSPWTFGQGTKVEIK
B2: X-Ava/F2 (bispecific antibody)
light 1: DIQMTQSPSSLSASVGDRVTITCKASQSVSSDVGWYQQKPGKAPKLLIYSGSNRYSGVPSRFSGSGSGTDFTLTISSLQPEDFATYYCQQDYYSPWTFGQGTKVEIKRTVAAPSVFIFPPSDEQLKSGTASVVCLLNNFYPREAKVQWKVDNALQSGNSQESVTEQDSKDSTYSLSSTLTLSKADYEKHKVYACEVTHQGLSSPVTKSFNRGEC
heavy 1: not shown
light 2: DIQMTQSPSSLSASVGDRVTITCSASQDISNYLNWYQQKPGKAPKVLIYFTSSLHSGVPSRFSGSGSGTDFTLTISSLQPEDFATYYCQQYSTVPWTFGQGTKVEIKSSASTKGPSVFPLAPSSKSTSGGTAALGCLVKDYFPEPVTVSWNSGALTSGVHTFPAVLQSSGLYSLSSVVTVPSSSLGTQTYICNVNHKPSNTKVDKRVEPKSC
heavy 2: not shown

Legend:
[1] = target: FGF2 (UniProt P09038 143-288); assay: ELISA
[2] = target: T1, VEGF (UniProt P15692 27-191); assay: ELISA
T1 chain: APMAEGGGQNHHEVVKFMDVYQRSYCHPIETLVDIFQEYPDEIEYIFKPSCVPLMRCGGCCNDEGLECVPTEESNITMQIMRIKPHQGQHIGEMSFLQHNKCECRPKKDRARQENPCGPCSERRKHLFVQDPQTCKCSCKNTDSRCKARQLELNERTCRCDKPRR

Chain of FGF2 (P09038 143-288): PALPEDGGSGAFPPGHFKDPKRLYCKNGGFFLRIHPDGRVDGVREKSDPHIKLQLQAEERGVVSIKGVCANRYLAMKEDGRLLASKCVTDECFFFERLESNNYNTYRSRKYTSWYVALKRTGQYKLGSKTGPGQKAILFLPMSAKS

Binder | EC50 [1] | EC50 [2]
B1 | 0.1 nM | –
B2 | 0.35 nM | 1.43 nM
